Experimental data from the nanobody polyreactivity screen of Harvey et al. (2022).

test: yeast display, Sf9 membrane polyspecificity reagent, FACS + sequencing; frameworks hold sequencing errors
Procedure, shortened: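 A synthetic nanobody library was expressed on Saccharomyces cerevisiae BJ5465 by galactose induction for 36–48 hours. The library was stained for 1 hour at 4 °C with 10% biotinylated, detergent-solubilized Sf9 membrane reagent and enriched with streptavidin microbeads before FACS. Low and high (top ~1%) gates were set on anti-HA fluorescence for expression and streptavidin fluorescence for reagent binding, and each polyreactivity label reflects the gate of origin.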

Row | Sequence | polyreactivity (PSR sort gate)
1 | QVQLVESVGGLVQAGGSLRLICAASGYTFSRNAMGWYRPAPGKERELVAVISSGGSTYYADSVKGRFTISRDNAKNTVYLQMNSLKPEDTAVYYCNTGVYRYGYWYDYWGQGTQVTVSS | high polyreactivity
2 | QVQLVESVGGLVQAGGSLRLRCAASGRTFGVYAMGWYRQAAGKESEFVATITSRGGRTYSADSVKGRFTISRDNAKKTVYLQMNSLIPEDTAVYYCAAQVGRNGVSEYDYWGQGTQVTVSS | high polyreactivity
3 | QVQLVESVGGLVQAGGSLRLSCAASGFIFGYNAMGWYRQAPGKERELVAAITSRGDRTYYADSVKGRFTISRDNAKNTVYLQMNSLKPEDTAVYYCAKATRGYRSPYCSIGYYYWGQGTQLTVSS | high polyreactivity
4 | QVQLVESVGGLVQAGGSLRLSCAASGFIFKGNAMGWYRQAPGKERELVAAITNRGGGTYYADSVKGRFTISRDNAKNTVYLQMNSLKPEDTAVYYCAKAYTRPFHPYDYWGQGTQVTVSS | high polyreactivity
5 | QVQLVESVGGLVQAGGSLRLSCAASGFIFNWYAMGWYRQAPGKERELVAAITSGGSTNYADSVKGRFTISRDNAKNTVYLQMNSLKPEDTAVYYCAARDWRRYGYWGQGTQVTVSS | high polyreactivity
6 | QVQLVESVGGLVQAGGSLRLSCAASGFIFSQYAMGWDRKAPGKERELVAAISKSGGRTYYADSVKGRFTFSRDNAKNTVYLQMNSLKPEDTAVYYCAAVSYSSYRYDYWGQGTQVTVSS | high polyreactivity
7 | QVQLVESVGGLVQAGGSLRLSCAASGFIFYGYAMGWYRQAPGKERELVAAISRSGTSTYYADSVKGRFTISRDNAKNTVYLQMNSLKPEDTAVYYCAADYVGWKWGSRGAIYKHYYWGQGTQVTVSS | high polyreactivity
8 | QVQLVESVGGLVQAGGSLRLSCAASGFIFYSNAMGWYRKAPGKERELVAAISRSGGSTYYADSVKGRFTISRDNAKNTVYLQMNSLKPEDTAVYYCNVYCYDWWGYDYWGQGTQVTVSS | high polyreactivity
9 | QVQLVESVGGLVQAGGSLRLSCAASGFIFYYNTMGWYRQAPGKERELVAAISSGGRTYYADSVKGRFTISRDNAKNTVYLQMNSLKPEYTAVYYCNVVTYVKYGYWGQGTQVTVSS | high polyreactivity
10 | QVQLVESVGGLVQAGGSLRLSCAASGFNFDYYTMGWYRQAPGKEREFVAAINRRGDITYYADSVKGRFTISRDNAKNTVYLQMNSLKPEDTAVYYCAANLTCSSRYEYGYWGQGTQVTVSS | low polyreactivity
11 | QVQLVESVGGLVQAGGSLRLSCAASGFNFPGYAMGWYRPAPGKERELVAAITGSGGRTYYADSVKGRFTISRDNAKNTVYLQMISLKPEDTAVYYCLARSYYNWYDYWGKGTQVTVSS | high polyreactivity
12 | QVQLVESVGGLVQAGGSLRLSCAASGFNFSAYAMGGYRQAPGKESELVAAISWSGSRTYYADSVKGRFTISRDNAKNTVYLQMNSLKPEDTAVFYCAKEPYDTFGFYEYDYWGQGTQVTVSS | low polyreactivity
13 | QVQLVESVGGLVQAGGSLRLSCAASGFTFANYAMGWYRQAPGKERELVAAITWSGGRTYYADSVKGRFTISRDNAKNTVYLQMNSLKQEYTAVYYCAAGLGTLYGYWGQGTQVTVSS | high polyreactivity
14 | QVQLVESVGGLVQAGGSLRLSCAASGFTFLWYAMGWYRQAPGKEWELVAAINSSGVRTYYADSVKGRFTISRDNAKNTVYLLMNSLKPEDTAVYYCAAYQKTYTEDEYWGQGTQVTVSS | high polyreactivity
15 | QVQLVESVGGLVQAGGSLRLSCAASGFTFTYNAMGWYRQAPGKERELVAAISRNGGRTYYADSVKGRFTISRDNAKNTVYLQMNSLKPEDTAVYYCNAVYYYYYWRVSIYDYWGQGTQVTVSS | high polyreactivity
16 | QVQLVESVGGLVQAGGSLRLSCAASGFTFWIYAMGWYRQAPGKERELVAVISRGGSTYYADSVKGRFTISRDNAKNTVYLQMNSLKPEDTAVYYCAAYWRSRNRFYWGQGTQVTVSS | high polyreactivity
17 | QVQLVESVGGLVQAGGSLRLSCAASGGTFFYNSMGWYRQAPGKEREFVAAINGGTSTNYADSVKGRFTISRDNAKNTVYLQMNSLKPEDTAVYYCAAVYRRLGRFDWYDYWGQGTQVTVSS | low polyreactivity
18 | QVQLVESVGGLVQAGGSLRLSCAASGITFDRNAMGWYRQAPGKERELVAAISSGGTYADSVKGRFTISRDNAKNTVYLQMNSLKPEDTAVYYCNADTDYIRWIYGYWGQGTQVTVSS | low polyreactivity
19 | QVQLVESVGGLVQAGGSLRLSCAASGITFSLYAAMGWYRQAPGKERELVAAISWRGGNTYYADSVKGRFTISRDNAKNTVYLQMNSLKPEDTAVYYCAARRTNLPVNFYYWGQGTQVTVSS | high polyreactivity
20 | QVQLVESVGGLVQAGGSLRLSCAASGITYYGYAMGWYRQAPGKERELVAAISKSGGSTHYADSVKGRFTISRDNAKNTVYLQMNSLKPEDTAVYYCNSRSLVFPITFWEYDYWGQGTQVTVSS | low polyreactivity
21 | QVQLVESVGGLVQAGGSLRLSCAASGLIFSRYAMGWYRQAPGKERELVAAITSGTSTYYADSVKGRFTISRDNAKNTVYLQMNSLKPEDTAVYYCARRYRGGYKYDYWGQGTQVTVSS | high polyreactivity
22 | QVQLVESVGGLVQAGGSLRLSCAASGLIFVRYAMGWYRQAPGKERELVATITWSGGTTYADSVKGRFTISRDNAKNTVYLQMNSLKPEDTAVYYCAVEWPAWTDSDYPVGGHAFGYWGQGTQVTVSS | low polyreactivity

Row | Sequence | polyreactivity (PSR sort gate)
23 | QVQLVESVGGLVQAGGSLRLSCAASGLTCYGKTMGWYRQAPGKDRELVAAISFDGGNTYADSVKGRFTISRDNAKNTVYLQMNSLKPEDTAVYYDYWGQGNQVTVSS | low polyreactivity
24 | QVQLVESVGGLVQAGGSLRLSCAASGNTFSLYAMGWYSQAPGKERELVAAITWITGSTDYADSVKGRFTISRDNAKNTVYLQMNSLKPEDTAVYYCAADGDFSWFYSYETGWIEYDYCGQGTQVTVSS | low polyreactivity
25 | QVQLVESVGGLVQAGGSLRLSCAASGRIFRSYTMGWYREATGKERELVAGIRASGGSTYYADSVKGRFTISRDNAKNTVYLQMNSVKPEDTAVYYCAARRYTTFGIRDYWGQGTQVTVSS | high polyreactivity
26 | QVQLVESVGGLVQAGGSLRLSCAASGRIFTLYAMGWYRQAPGKERELVAAISWSGGSTYYADSVKGRFTISRDNAKNTVYLQMNSLKPEDTAVYYCAATWYRYYSIPRYDSWGQATQVTVSS | high polyreactivity
27 | QVQLVESVGGLVQAGGSLRLSCAASGRIFYPYAMGWYRQAPGKERELVAAITRGGITTYADSVYGRFTISRDNAKNTVYLQMNSLKPEDTAVYYCNAVRWYGRMDYWGQGTQVTVSS | low polyreactivity
28 | QVQLVESVGGLVQAGGSLRLSCAASGRIYVYVMGWYIQSPGKERELVAAITSGGSTYYADSVKGRFTISRDNAKNTDYLQMNSLKPEDTAVYYCAADVNGGYDYYYFVSIVYYWGQGTQVTVSS | low polyreactivity
29 | QVQLVESVGGLVQAGGSLRLSCAASGRTCGYKAMGWYRQAPGKERQLVAAISRGGSTNYADSVKGRFTISRDNAKNSVYLQMNSLKPEDTAVYYCAKTIRAYRPSRTAYRLDYWGQGTQVTVSS | high polyreactivity
30 | QVQLVESVGGLVQAGGSLRLSCAASGRTFRAYSMGSYRQAPGKETELVAAIRSGTSTNYADSVKGRFTISRDNAKNTVYLQMNSLKPEDTAVYYCAARWWYYIGGRDYWGHGTQVTVSS | high polyreactivity
31 | QVQLVESVGGLVQAGGSLRLSCAASGRTFRNNAMGWYRQAPGTEREFVAVISNTGGSTYYADSVKGRFTISRDNAKNTVYLQLNSLKPEDTAVYYCAVRPRYSQYYYWGQGTQVTVSS | high polyreactivity
32 | QVQLVESVGGLVQAGGSLRLSCAASGRTFVYNAMGWYRQAPGKEREFVGAISDGGGDTYYADSVKGRFTISRDNAKNTVFLQMNSLKPEVTAVYYCNVEWQQPGYAFDYCGQGTQVTVSS | low polyreactivity
33 | QVQLVESVGGLVQAGGSLRLSCAASGRTFYFYAMGWYRQAPGKERELVASITSSGGNTYYADSVKGRFTISRDNAKNTVYLQMNSLKPEDTAVYYCAARWFPWLQWKRYVYWGQGTQVTVSS | low polyreactivity
34 | QVQLVESVGGLVQAGGSLRLSCAASGRTFYTNAMGWYRQAPGKERELVAAITRGTSTSYADSVKGRFTISRDNAKNTVYLQMNSLKPEDTAVYYCAARGTQYSPSKSWFYYWGQGTQVTVSS | high polyreactivity
35 | QVQLVESVGGLVQAGGSLRLSCAASGRTLLYNAMGWYRQAPGKERELVAAISRGGSTYYADSVNGRFTISRDNAKNTVYLQMNSLKPEDTAVYYCATGTWRYRYDYWGQGTQVTVSS | low polyreactivity
36 | QVQLVESVGGLVQAGGSLRLSCAASGSIFGFYAMGWYRQAPGKERELDAVISSDASKNYADSVKGRFTISRDNAKNTVYLQMKSLKPEDTAVYYCNAVAYGYHFFSYYSVDYWGQGTQVTVSS | low polyreactivity
37 | QVQLVESVGGLVQAGGSLRLSCAASGSIFKYYAMGWYRQEPGKERELVAAITIGGNTNYADSVKGRFTISRDNAKNTVYLQMNSLKPEDTAVYYCATGGYYSAIVYGGYDYWGQGTQVSVSS | low polyreactivity
38 | QVQLVESVGGLVQAGGSLRLSCAASGSIFRLYALGWSRQAPGKERELVAAIRYSTGRTYSADSVKGRFTISRDNAKNTVYLQMNSLKPEDTAVYYCNARSWYIRGSQEYYYWGQGTQVTVSS | high polyreactivity
39 | QVQLVESVGGLVQAGGSLRLSCAASGSIFVTNAMGWYRQAPGKERELVAAISSGGNTNYADSVKGRFTISRDNAKNTVYLQMNSRKPEDTAVYYCAKDPDKVDYVDMDYWGQGTQVTVSS | low polyreactivity
40 | QVQLVESVGGLVQAGGSLRLSCAASGSIFWPNAMGWYRQAPGKERELVATISGSGGSTYYADSVKGRFTISRDNAKNTVYLQMNSLKPEDTAVYYCAADYRYGRYDYWGQGTQVTVSS | high polyreactivity
41 | QVQLVESVGGLVQAGGSLRLSCAASGSIFWWYAMGLARQAPGKERELVAAISTRDGNTYYADSVKGRFTISRDNANNTVYLQMNSLKPEDTAVYYCAADYFRYYPYDYWGQGTQVTVSS | low polyreactivity
42 | QVQLVESVGGLVQAGGSLRLSCAASGSIFYNNAMGWYRQAPGKDRELVAAIRSTGTRTYYADSVKGRFTISRDHAKNTVYLQMNSLKAEDTAVYYCAVGDYGLWSYDYWGQGTQLTVSS | low polyreactivity
43 | QVQLVESVGGLVQAGGSLRLSCAASGSIRSYAIGWYRQAPGKERELVAAITRSGGSTYYADSVKGRFTISRDNAKNTVYLQMISLKPEDTAVYYCAARYTYSYPLFGSWGQGTQVTVSS | high polyreactivity
